Data as given in patent US20130331552A1.

Target: recombinant influenza HA3-protein (from H3N2, Wyoming, March 2003, Sino Biological Inc.) (influenza H3N2, Wyoming, March 2003)
Assay: SPR imaging (IBIS MX96), antibody captured on anti-human-IgG chip, HA3 injected at 1 µg/ml, global 1:1 fit

B1: AT10-004 (antibody, V domains shown)
VH: RASQSVSRYLA
VL: RASQSVSRYLA
- Kd: 0.07 nM
- koff: 1e-06 s⁻¹
- kon: 14000 M⁻¹ s⁻¹
